The record followed here is PMC12301659.

In assay [1] the target is separase [also known as separin (ESPL1)], endogenous [human (endogenous in HCT116)]. Briefly: proximity ligation assay (PLA). Particulars: HCT116 cells stably expressing GFP–Centrin2; antibodies against HA and separase; parent: 44; read off a plot.
Assay [2] addresses 14-3-3ε (endogenous) [human (endogenous in HCT116)]. Description: proximity ligation assay (PLA). Conditions: HCT116 cells stably expressing GFP–Centrin2; antibodies to the Myc epitope tag and 14-3-3ε; parent: 52; read off a plot.

Turning to “HA-tagged 14-3-3ε WT mutant E134A [not stated] / separase [also known as separin (ESPL1)], endogenous [human (endogenous in HCT116)] chain 1 E134A”, in assay [1], the response (puncta per cell) is 8. On the same count and under the same terms, to “HA-tagged 14-3-3ε WT mutant D127A [not stated] / separase [also known as separin (ESPL1)], endogenous [human (endogenous in HCT116)] chain 1 D127A” belongs 63. For the substance “Myc-tagged separase (FL) mutant S1501A [human] / 14-3-3ε (endogenous) [human (endogenous in HCT116)] chain 1 S1501A”, the response (puncta per cell) in assay [2] was 0.5. Take “HA-tagged 14-3-3ε WT mutant D127A; E134A [not stated] / separase [also known as separin (ESPL1)], endogenous [human (endogenous in HCT116)] chain 1 D127A, chain 1 E134A”: the response (puncta per cell) in assay [1] is 19. “Myc-tagged separase (FL) mutant T1363A [human] / 14-3-3ε (endogenous) [human (endogenous in HCT116)] chain 1 T1363A”: in assay [2], the response (puncta per cell) stood at 45.
